Target: vascular endothelial growth factor (VEGF) (human) (UniProt P15692)
Experiment: cell-based or functional assay

UniProt P15692, sequence (P15692 other isoform, or with tags, fused parts or gaps limits assumed): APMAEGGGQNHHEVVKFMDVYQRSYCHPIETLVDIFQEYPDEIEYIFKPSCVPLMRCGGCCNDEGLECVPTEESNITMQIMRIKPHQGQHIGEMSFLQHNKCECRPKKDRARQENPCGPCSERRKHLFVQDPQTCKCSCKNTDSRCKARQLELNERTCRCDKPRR

KH903 (Fc fusion)
viability of HUVECs 72 h after infection with 30 MOI dE1-k35/KH903 (MTT assay), decrease against non-treated group: 53%
